# Measurements: patent publication US20190144565A1 (UCB, published 2019)
# Key:
# [1] = biological target: IgE-Fc, the Fc portion of human IgE (Cε2-Cε4 domains, V224-K547 by Dorrington & Bennich numbering, carrying a C225A mutation) (human) (UniProt P01854); assay: flow cytometry, Alexa488 IgE-Fc on RBL-SX38 cells; control at 1 ug/mL
# [2] = biological target: IgE-Fc, the Fc portion of human IgE (Cε2-Cε4 domains, V224-K547 by Dorrington & Bennich numbering, carrying a C225A mutation) (human) (UniProt P01854); assay: flow cytometry, Alexa488 IgE-Fc on RBL-SX38 cells; control at 10 ug/mL
# [3] = biological target: IgE-Fc, the Fc portion of human IgE (Cε2-Cε4 domains, V224-K547 by Dorrington & Bennich numbering, carrying a C225A mutation) (human) (UniProt P01854); assay: flow cytometry, Alexa488 IgE-Fc on RBL-SX38 cells; control at 31 ug/mL
# [4] = biological target: IgE-Fc, the Fc portion of human IgE (Cε2-Cε4 domains, V224-K547 by Dorrington & Bennich numbering, carrying a C225A mutation) (human) (UniProt P01854); assay: flow cytometry, Alexa488 IgE-Fc on RBL-SX38 cells; control at 100 ug/mL
# [5] = biological target: IgE-Fc, the Fc portion of human IgE (Cε2-Cε4 domains, V224-K547 by Dorrington & Bennich numbering, carrying a C225A mutation) (human) (UniProt P01854); assay: flow cytometry, Alexa488 IgE-Fc on RBL-SX38 cells; control at 3.1 ug/mL
# Sequence of IgE-Fc, the Fc portion of human IgE (Cε2-Cε4 domains, V224-K547 by Dorrington & Bennich numbering, carrying a C225A mutation) (human) (P01854 other isoform, or with tags, fused parts or gaps C225A C225A limits assumed): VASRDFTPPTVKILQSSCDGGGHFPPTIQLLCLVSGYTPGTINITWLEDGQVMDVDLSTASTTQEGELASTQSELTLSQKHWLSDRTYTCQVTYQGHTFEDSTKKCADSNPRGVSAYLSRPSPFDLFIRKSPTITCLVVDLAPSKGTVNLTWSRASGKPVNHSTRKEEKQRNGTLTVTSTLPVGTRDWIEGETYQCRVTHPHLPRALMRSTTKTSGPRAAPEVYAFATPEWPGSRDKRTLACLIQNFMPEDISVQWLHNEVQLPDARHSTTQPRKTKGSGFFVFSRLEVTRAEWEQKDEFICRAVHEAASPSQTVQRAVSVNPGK
substance,measurement,setting,value
Isotype control (antibody),dissociation rate of IgE-Fc from FcεRI on cells,[1],1.25e-05 s⁻¹
same,dissociation rate of IgE-Fc from FcεRI on cells,[2],1.35e-05 s⁻¹
same,dissociation rate of IgE-Fc from FcεRI on cells,[3],1.28e-05 s⁻¹
same,dissociation rate of IgE-Fc from FcεRI on cells,[4],1.3e-05 s⁻¹
same,dissociation rate of IgE-Fc from FcεRI on cells,[5],1.19e-05 s⁻¹
